Where a chain is given by its changes, count along the chain named.
B1: Ms-15 (antibody, V domains shown)
VH: EVQLVETGGGLVQPKGSLKLSCAASGFTFNTNAMNWVRQAPGKGLEWVGRIRTKSNNYATYYADSVRDRFTISRYDSQGMLYLQMNNLKTEDTAMYYCVRGGYGIRGDYTMDYWGQGTSVTVSS
VL: DIVMTQAAPSVPVTPGESVSISCRSSKSLLHSNGNTYLYWFLQRPGQSPQLLIYRMSNLASGVPDRFSGSGSGTAFTLRISRVEAEDVGVYYCMQHLEYPFTFGSGTKLEIK
notes: Mouse hybridoma antibody; also called mouse-derived anti-CCR8 antibody Ms-15
B2: Ms-1 (antibody, V domains shown)
VH: QVQLQQSGAELVRPGASVTLSCKASGYTFTAYEMHWVRQTPVNGLEWIGAIDPKTGVTAYNQKFKDKAIMTADKYSSTAYMDLRSLTSEDSAVYYCTSRAGGRGRFAYWGQGTLVTVSA
VL: DVVMTQTPLSLPVSLGDQASISCRSSQSLVHSSANTYLHWYLQKPGQSPKVLIYKVSNRFSGVPDRFSGSGSGTDFTLKISRVEAEDLGLYFCSQSTHVPFTFGGGTKLEIK
notes: Mouse hybridoma antibody; also called mouse-derived anti-CCR8 antibody Ms-1
B3: chimeric antibody CH-2 (antibody, V domains shown)
VH: QVQLQQSGAELARPGASVTLSCKASGYTFTDYEMHWVKQTPVRGLEWIGAIDPETGATAYNQKFKGKATLTADKSSNTAYMELRRLTSEDSAVYYCKSRAGGRGRFAYWGQGTLVTVSA
VL: B2 VL with S14R, A34G, P45S, V51L, L90V, S96T, F101Y
notes: Variable domains of Ms-2 in a human IgG framework, expressed in CHO cells
B4: Ms-8 (antibody, V domains shown)
VH: B1 VH with N32Y, A40T, G42E, G49A, Y61S, R67K, G79N, T110A
VL: B1 VL with S26T, A75T
notes: Mouse hybridoma antibody; also called mouse-derived anti-CCR8 antibody Ms-8
B5: Ms-2 (antibody, V domains shown)
VH: B3 VH
VL: B2 VL with S14R, A34G, P45S, V51L, L90V, S96T, F101Y
notes: Mouse hybridoma antibody; also called mouse-derived anti-CCR8 antibody Ms-2
B6: Hu-2-Z5 (antibody, V domains shown)
VH: QVQLVQSGAEVKKPGASVKVSCKASGYTFTDYEMHWVRQAPGQGLEWMGAIDPETGATAYNQKFKGRVTLTADTSISTAYMELSRLRSDDTVVYYCASRAGGRGRFAYWGQGTLVTVSS
VL: EVVMTQSPGTLSLSPGERATLSCRSSQSLVHSSGNTYLHWYQQKPGQSPRLLIYKVSNRFSGIPDRFSGSGSGTDFTLTISRLEPEDFAVYFCSQTTHVPYTFGGGTKLELK
notes: Humanized from CH-2; also called humanized antibody Hu-2-Z5
B7: Hu-2-Z9 (antibody, V domains shown)
VH: B6 VH with A97K
VL: B6 VL with E1D, G9L, R50K
notes: Humanized from CH-2; also called humanized antibody Hu-2-Z9
B8: Hu-2-Z4 (antibody, V domains shown)
VH: B6 VH
VL: B6 VL with V2I, M4L, S48A, F92Y
notes: Humanized from CH-2; also called humanized antibody Hu-2-Z4
B9: Hu-2-Z2 (antibody, V domains shown)
VH: B6 VH with L70S, A72R, S98R
VL: B6 VL
notes: Humanized from CH-2; also called humanized antibody Hu-2-Z2
B10: Hu-2-Z8 (antibody, V domains shown)
VH: B6 VH with A97K
VL: B6 VL
notes: Humanized from CH-2; also called humanized antibody Hu-2-Z8
B11: Hu-2-Z11 (antibody, V domains shown)
VH: B6 VH with G42V, Q43R, A97K
VL: B6 VL
notes: Humanized from CH-2; also called humanized antibody Hu-2-Z11
B12: Hu-2-Z6 (antibody, V domains shown)
VH: B6 VH
VL: B6 VL with E1D, G9L, R50K
notes: Humanized from CH-2; also called humanized antibody Hu-2-Z6
B13: Hu-2-Z7 (antibody, V domains shown)
VH: B6 VH with A97K
VL: B6 VL with V2I, M4L, S48A, F92Y
notes: Humanized from CH-2; also called humanized antibody Hu-2-Z7
B14: Hu-2-Z12 (antibody, V domains shown)
VH: B6 VH with G42V, Q43R, A97K
VL: B6 VL with E1D, G9L, R50K
notes: Humanized from CH-2; also called humanized antibody Hu-2-Z12
B15: Hu-2-Z3 (antibody, V domains shown)
VH: B6 VH with L70S, A72R, S98R
VL: B6 VL with E1D, G9L, R50K
notes: Humanized from CH-2; also called humanized antibody Hu-2-Z3
B16: Hu-2-Z1 (antibody, V domains shown)
VH: B6 VH with L70S, A72R, S98R
VL: B6 VL with V2I, M4L, S48A, F92Y
notes: Humanized from CH-2; made by the aforementioned method (human IgG framework); also called humanized antibody Hu-2-Z1
B17: Hu-2-Z10 (antibody, V domains shown)
VH: B6 VH with G42V, Q43R, A97K
VL: B6 VL with V2I, M4L, S48A, F92Y
notes: Humanized from CH-2; also called humanized antibody Hu-2-Z10
B18: Hu-15-Z6 (antibody, V domains shown)
VH: B1 VH with T7S, K15G, K19R, D64E, Y75D, Q78K, G79N, M80S, N87S, S119L
VL: DIVMTQSPPTLSLSPGERATLSCRSSKSLLHSNGNTYLYWFQQKPGQSPQLLIYRMSNLASGIPDRFSGSGSGTDFTLTISRLEPEDFAVYYCMQHLEYPFTFGQGTKLEIK
notes: Humanized from CH-15; also called humanized antibody Hu-15-Z6
B19: Hu-15-Z10 (antibody, V domains shown)
VH: EVQLVESGGGLVQPGGSLRLSCAASGFTFNTNAMNWVRQAPGKGLEWVGRIRTKSNNYATYYAESVRDRFTISRDDSKNSLYLQMNSLKTEDTAMYYCVRGGYGIRADYTMDYWGQGTLVTVSS
VL: B18 VL
notes: Humanized from CH-15; also called humanized antibody Hu-15-Z10
B20: Hu-15-Z2 (antibody, V domains shown)
VH: B19 VH with M95V, V99A, A107G
VL: B18 VL with D1E, P9G, Q50R
notes: Humanized from CH-15; also called humanized antibody Hu-15-Z2
B21: Hu-15-Z1 (antibody, V domains shown)
VH: B19 VH with M95V, V99A, A107G
VL: B18 VL with D1E, M4L, P9G, F41Y, S48A, Q50R
notes: Humanized from CH-15; made by the aforementioned method (human IgG framework); also called humanized antibody Hu-15-Z1
B22: Hu-15-Z5 (antibody, V domains shown)
VH: B19 VH with A107G
VL: B18 VL with D1E, P9G, Q50R
notes: Humanized from CH-15; also called humanized antibody Hu-15-Z5
B23: Hu-15-Z3 (antibody, V domains shown)
VH: B19 VH with M95V, V99A, A107G
VL: B18 VL
notes: Humanized from CH-15; also called humanized antibody Hu-15-Z3
B24: Hu-15-Z9 (antibody, V domains shown)
VH: B19 VH with A107G, D108E
VL: B18 VL
notes: Humanized from CH-15; also called humanized antibody Hu-15-Z9
B25: Hu-15-Z7 (antibody, V domains shown)
VH: B19 VH with A107G
VL: B18 VL with N33Q
notes: Humanized from CH-15; also called humanized antibody Hu-15-Z7
B26: Hu-15-Z4 (antibody, V domains shown)
VH: B19 VH with A107G
VL: B18 VL with D1E, M4L, P9G, F41Y, S48A, Q50R
notes: Humanized from CH-15; also called humanized antibody Hu-15-Z4
B27: Hu-15-Z8 (antibody, V domains shown)
VH: B19 VH with A107G
VL: B18 VL with G34A
notes: Humanized from CH-15; also called humanized antibody Hu-15-Z8

target: T1, human CCR8 (chemokine (C-C motif) receptor 8) (human, UniProt P51685 1-355); test: flow cytometry on CCR8-CHO-K1 cells
T1 construct: whole, on cells; also called CCR8-CHO-K1 cells; CHOK1-CCR8 cells
Description: (§1) The antibody to be tested was taken as the initial concentration of 50 μg/mL and diluted 5-fold with 6 gradients. The cells CCR8-CHO-K1 in the incubator were taken out, and the cell suspension was transferred to a 15 mL centrifuge tube, centrifuged, and counted by resuspension in PBS. A blank control group (Blank), a negative control group (NC), an experimental group, a positive control group (positive control BMK derived from the 1K17 sequence of US20210277129) and the irrelevant antibody group were kept. The cell suspension was spread in a 96-well plate according to about 3×10⁵ cells/well. Centrifugation (1000 rpm, 5 min) was performed, followed by washing with PBS, re-centrifugation, and repeated twice to remove media residues. The supernatant was discarded, 100 μL of primary antibody solution and irrelevant antibody solution were added to the experimental group and irrelevant antibody group, respectively, and the cells were resuspended and incubated at room temperature for 1 h. The blank group, and the negative control group were incubated with an equal amount of PBS.
(§2) After 1 h, PBS was added to wash twice. […] After the supernatant was discarded, 120 μL of PBS was added to resuspend and sequentially flow cytometry was performed to detect the mean fluorescence intensity. […]

T1 sequence (P51685 whole entry): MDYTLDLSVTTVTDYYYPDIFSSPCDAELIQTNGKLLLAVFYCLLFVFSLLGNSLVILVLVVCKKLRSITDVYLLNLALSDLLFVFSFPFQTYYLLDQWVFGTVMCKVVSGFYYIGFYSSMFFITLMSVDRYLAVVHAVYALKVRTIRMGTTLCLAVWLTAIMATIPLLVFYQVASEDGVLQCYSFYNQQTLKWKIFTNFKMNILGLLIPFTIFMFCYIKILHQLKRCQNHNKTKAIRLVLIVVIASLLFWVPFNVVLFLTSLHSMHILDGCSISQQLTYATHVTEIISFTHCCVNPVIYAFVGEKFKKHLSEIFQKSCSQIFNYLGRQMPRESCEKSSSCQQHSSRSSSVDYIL

| binding result | Binder |
| --- | --- |
| binds | B1 |
| binds | B2 |

target: T1, human CCR8 (chemokine (C-C motif) …); test: flow cytometry on CCR8-CHO-K1 cells, PE anti-human IgG Fc secondary
Description: as §1, with “The supernatant was discarded, 100 μL of primary antibody solution and irrelevant antibody solution were added to the experimental group and irrelevant antibody group, respectively, and the cells were resuspended and incubated at room temperature for 1 h. The blank group, and the negative control group were incubated with an equal amount of PBS.” left out
as §2
The binding activity of the chimeric antibodies was detected by FACs method, the secondary antibody was PE F(ab′) 2 sheep anti-human IgG Fc (Biolegend, Cat: 398004), and the assay procedure was the same as Example 6, and the results are shown in FIG. 2.

| binding result | Binder |
| --- | --- |
| binds | B3 |

target: T1, human CCR8 (chemokine (C-C motif) …); test: flow cytometry on CCR8-CHO cells
Description: as §1, §2

| binding result | Binder |
| --- | --- |
| binds | B4 |
| binds | B5 |

target: T1, human CCR8 (chemokine (C-C motif) …); test: flow cytometry on CHOK1-CCR8 cells, steps of Example 6

| binding result | Binder |
| --- | --- |
| binds | B6 |
| binds | B7 |
| binds | B8 |
| binds | B9 |
| binds | B10 |
| binds | B11 |
| binds | B12 |
| binds | B13 |
| binds | B14 |
| binds | B15 |
| binds | B16 |
| binds | B17 |
| binds | B18 |
| binds | B19 |
| binds | B20 |
| binds | B21 |
| binds | B22 |
| binds | B23 |
| binds | B24 |
| binds | B25 |
| binds | B26 |
| binds | B27 |

From patent US20250243287A1 (SHENGHE CHINA BIOPHARMACEUTICAL, published 2025)
